Test results as given in PMC7883291, “Selective cross‐linking of coinciding protein assemblies by in‐gel cross‐linking mass spectrometry” (The EMBO Journal, 2021).
“And” between values parts separate entries of the source, which are not always exact repeats. Identical values can stand only once.

Molecular target: T1, Escherichia coli GroEL chaperone (Escherichia coli, UniProt P0A6F5 2-548)
T1 construct: GroEL chaperonin, Escherichia coli; monomer band at 57 kDa, native 14-mer of 800 kDa; also called 14-mer GroEL; source: expressed and purified as previously described; copies: 14
Assay: native gel or EMSA; BN-PAGE after incubation of unfolded gp23 (11.4 µM) with GroEL (0.8 µM) in 50 mM Tris pH 7.5, 50 mM KCl, MgCl2, 1 mM ADP, 10 min at RT; subunits in the bands quantified by iBAQ
Details: both partners purified

T1 sequence (P0A6F5 2-548): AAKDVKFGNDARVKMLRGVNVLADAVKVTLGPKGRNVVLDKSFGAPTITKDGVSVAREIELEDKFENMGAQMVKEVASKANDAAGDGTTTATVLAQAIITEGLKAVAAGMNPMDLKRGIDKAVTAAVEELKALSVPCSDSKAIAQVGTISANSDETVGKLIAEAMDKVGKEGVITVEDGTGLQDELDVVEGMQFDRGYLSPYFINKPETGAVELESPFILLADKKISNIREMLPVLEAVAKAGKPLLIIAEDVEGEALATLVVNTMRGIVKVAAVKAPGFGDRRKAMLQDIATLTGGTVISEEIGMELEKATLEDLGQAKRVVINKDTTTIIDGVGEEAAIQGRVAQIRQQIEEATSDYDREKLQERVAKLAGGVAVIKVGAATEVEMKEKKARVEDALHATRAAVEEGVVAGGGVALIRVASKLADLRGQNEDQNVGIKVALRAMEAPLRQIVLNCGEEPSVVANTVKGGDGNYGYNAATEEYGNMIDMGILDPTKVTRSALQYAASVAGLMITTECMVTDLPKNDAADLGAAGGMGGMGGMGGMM

B1: bacteriophage T4 capsid protein (gp23) (natural protein, UniProt P04535 1-521, looked up)
chain: MTIKTKAELLNKWKPLLEGEGLPEIANSKQAIIAKIFENQEKDFQTAPEYKDEKIAQAFGSFLTEAEIGGDHGYNATNIAAGQTSGAVTQIGPAVMGMVRRAIPNLIAFDICGVQPMNSPTGQVFALRAVYGKDPVAAGAKEAFHPMYGPDAMFSGQGAAKKFPALAASTQTTVGDIYTHFFQETGTVYLQASVQVTIDAGATDAAKLDAEIKKQMEAGALVEIAEGMATSIAELQEGFNGSTDNPWNEMGFRIDKQVIEAKSRQLKAAYSIELAQDLRAVHGMDADAELSGILATEIMLEINREVVDWINYSAQVGKSGMTLTPGSKAGVFDFQDPIDIRGARWAGESFKALLFQIDKEAVEIARQTGRGEGNFIIASRNVVNVLASVDTGISYAAQGLATGFSTDTTKSVFAGVLGGKYRVYIDQYAKQDYFTVGYKGPNEMDAGIYYAPYVALTPLRGSDPKNFQPVMGFKTRYGIGINPFAESAAQAPASRIQSGMPSILNSLGKNAYFRRVYVKGI
notes: major capsid protein gp23 of bacteriophage T4, printed size 56 kDa; Used as an unfolded substrate of GroEL; also called major capsid protein gp23; unfolded gp23; source: expressed and purified as previously described; unfolded in 8 M urea for one hour at RT
stoichiometry N: 1 and 2
